In US20100330090A1:

Experiments:
[1] = target: recombinant human Par-1 antigen (protease activated receptor-1) (human) (UniProt P25116); assay: BLI (ForteBio Octet), Experiment 1, Fab at 1E-8 M
[2] = target: recombinant human Par-1 antigen (protease activated receptor-1) (human) (UniProt P25116); assay: BLI (ForteBio Octet), Experiment 2, Fab at 2.5E-8 M

Kd [1] [nM]	koff [1] [s⁻¹]	kon [1] [M⁻¹ s⁻¹]	Kd [2] [nM]	koff [2] [s⁻¹]	kon [2] [M⁻¹ s⁻¹]	Binder
1.18	0.000311	265000				LDS896 (Fab, V domains shown, Fab constant regions not given) VH: EVQLVQSGAEVKKPGSSVKVSCKVSGGTFSNYVFNWVRQAPGQGLEWMGVINPHSGRTRYNQKFKGRVTMTTDTSTSTAYMELRSLTSDDTAVYYCARDDGPSHWYFDVWGQGTTVTVSS VL: DIVMTQSPLSLPVTPGEPASISCRSSQSLLHRNGNNYLEWYLQKPGQSPRLLIYKISNRFSGVPDRFSGSGAGTDFTLKISRVEAEDVGVYYCFQGSHVPFTFGQGTKLEIK
			1.13	0.000293	259000	LDW653 (Fab, V domains shown, Fab constant regions not given) VH: QVQLVQSGAEVKKPGASVKVSCKASGYTFNSYYMNWVRQAPGQGLEWMGVIDPHGGRTRYNQKFKGRVTMTTDTSTSTVYMELSSLRSEDTAVYYCARDDGPSMWYFDVWGQGTTVTVSS VL: DIVMTQSPLSLPVTPGEPASISCRSSQSLLHRNGNNYLEWYLQKPGQSPRLLIYKISNRFSGVPDRFSGSGAGTDFTLKISRVEAEDVGVYYCFQGSSVPFTFGQGTKLEIK
			1.47	0.000289	196000	LDS900 (Fab, V domains shown, Fab constant regions not given) VH: QVQLVQSGAEVKKPGASVKVSCKASGYTFNSYYMNWVRQAPGQGLEWMGVIDPHGGRTRYNQKFKGRVTMTTDTSTSTAYMELRSLTSDDTAVYYCARDDGPSLWYFDVWGQGTTVTVSS VL: DIVMTQSPLSLPVTPGEPASISCRSSQSLLHRNGNNYLEWYLQKPGQSPRLLIYKISNRFSGVPDRFSGSGAGTDFTLKISRVEAEDVGVYYCFQGSHVPFTFGQGTKLEIK
